In a protein production outcome set (Wang et al. 2014) one finds protein production data, which are given here for 20 sequences.

The nature of this data set: label from the status in PepcDB records.
On to “AADGEGRGELSPKIKAGDLESKLIVPKNNGLKITGTFLDEISHDIPHQNWGEKEWDLDFQHMKRIGIDTVIMIRSGYRKFMTYPSPYLLKKGCYMPSVDLVDMYLRLAEKYNMKFYFGLYDSGRYWDTGDLSWEIEDNKYVIDEVWKMYGEKYKSFGGWYISGEISRATKGAIDAFRAMGKQCKDISNGLPTFISPWIDGKKAIMGTGKLTREDAVSVQQHEKEWNEIFDGIHEVVDACAFQDGHIDYDELDAFFTVNKKLADKYGMQCWTNAESFDRDMPIRFLPIKFDKLRMKLEAAKRAGYDKAITFEFSHFMSPQSAYLQAGHLYDRYREYFEIK”, for which the protein production result is given as “not failed”.
Turning to “AADKRIDGNGNPETREIKISDYDEITFVGSADFEYEQSDKAPYLSVTIDENLFDYLVTEVEGGTLKIYPKSIKKGFNNNSYDLRPTVYKIKSNSKELKELNTVGSGSFIISKPTKVNRMEINMAGSGNVELRGPVKGYKLECNMAGSGNIIAKDIQLDNLSCSLASSGEIEVIGTVDRASFNVAGSGEIKAFDCQARKAECNIASSGEISVYATQILDANIVGSGEIHYKGDPEISKSIMGSGSINKVK”, the protein production result was “not failed”.
“AAIYHLDVSGQATIRFRPPAFLKTLVSEHAGTTRLNTLSMIHHDDRHMLSNAYSKLREAKHSLTLVYRIVTPEGKLHWIEDHMRSSFSDD”: the protein production entry was “failed”.
For “AAKPQIVEVTDDMPVEPIGVGIPEAGQTYPVIMGDYAAQQARWARIDVQPGTALSKPKPLIAKLDPELGETGPEWAPVNP”, the protein production entry is “failed”.
To “AASSRSWKSWFIEQYFWLKRDKSYYSKQDDPSFQRYLDACREQSDKPYQLDTNLVNGPLVQENLYGMQVYSWNDNGKPDQKTIIYLAGGSYLNNPTTYHINMLKTLSTSLDAKIVLPIYPKAPRYTYNYTMPKLVNLYQHYYHKNQNVFLMGDSAGGGLALGLAHALHNESVPQPKQLVLLSPWLDVTMSHPEIPEYEDADPILSSWGLKRVGELWAYSADNTNHIYVSPKNGPITYLPPITLFTGTREIFYPDIRDYAAKLKAANHNITFITQEGMNHVYPIYPIEEAKTAQYQIIDAINKT” belongs “failed”; to “ACKVLYSLGELNERFVPKTLKERVASIADVHFEHWNKYGDSVTATVNKADKSKDRTYKTECPLEFYDALPRVGEICYAYEIFLEPQFESCEYTEHMYLNLQTPRNYAILLRNKLPRLAEMPLFSNQGKLHVRVANAPLEVIIQNSEQLELLH”, “failed”; to “ADSPVLMVYGLDQSKMNCDRVFNVFCLYGNVEKVKFMKSKPGAAMVEMADGYAVDRAITHLNNNFMFGQKMNVCVSKQPAIMPGQSYGLEDGSCSYKDFSESRNNRFSTPEQAAKNRIQHPSNVLHFFNAPLEVTEENFFEICDELGVKRPTSVKVFSGKSERSSSGLLEWDSKSDALETLGFLNHYQMKNPNGPYPYTLKLCFSTAQHAS”, “not failed”.
In the case of “AEDPILRAIPENAFDGIAVTDAGGHVVYANSTYLALTGAATMQDVRPVERVFIGNPDVSEAVFRLLKAAREGRRLQEEVRVAGADGTQGRWMRLRVRPLGTSKREARQTVWSIADITRDRERQEDVFQTLQHAIEYLDHAPCGFFSVNPAGNLVYVNATLANWLDH” it was “failed”; in that of “AEGQTVYWHAWGGDPKINAFIAWVGEQARARHGFMLEQVKLADTTEAVARVLAEKQAGRTEGGAVDLIWINGENFAAMKAQGLLSEPFAESLPNWTHVDVAGKPAVVTDFTEPTGGLESPWAMAQLVFEHDSARLPAPPRTLAQLLAWIEVNPGRFTFPQPPDYLGTTFLKQVLYGVIEDPGLLQKPVDPATYETVTAPLWTWLDRAEPYLWREGRAYPANEPALGQLFADGEIAISFAFNPGRASAAIAAGELPETVRTFTLEGGTIGNASFVAIPFNAAHAAGAKVIANLLLDPEVQARAQDPAVLGFQTVLDVAALPEPDRARFAAL”, “failed”; in that of “AEICLITGTPGSGKTLKMVSMMANDEMFKPDENGIRRKVFTNIKGLKIPHTYIETDAKKLPKSTDEQLSAHDMYEWIKKPENIGSIVIVDEAQDVWPARSAGSKIPENVQWLNTHRHQGIDIFVLTQGPKLLDQNLRTLVRKHYHIASNKMGMRTLLEWKICADDPVKMASSAFSSIYTLDKKVYDLYESAEVHTVNKVKRSK”, “not failed”.
In the case of “AERTIQLPKPDMNRAGLLMKALSERHSTREYASKALSNTDLSDLLWAANGINRSSEGKRTAPSAMNRQDIDIYVVLPQGTYLYDAKGHKLNLISEGDHRSAVAGGQAFVNNAPVSLVLVSDLSKLGDAKSNHVQLMGAMDAGIVSQNISLFCSAARLATVPRASMDLVRLKAALKLKDTQMPMMNHPVGYFK” it was “not failed”; in that of “AGGTTPAELRAAAADFTWLLNRFATETAGVVDAIAVSSDGLLIAVSELREHADSERLAAIVSGITSLAAGASGNYGLGGLNKVIIDLEGGHVLVSAIGSGAVLGVVTDKEAKLGNIAYEMTLFANRAGAALS”, “failed”.
As to “AGKPDWDWQPAPKNEALIAAVSAAAQEGLNAAYQIREKQARTTKLREVYAAVQAAMAEQAAQAGQPAPDSVGVDNILFDLEARIVRSQILNGEPRIDGRDTRTVRP”, the protein production entry is “not failed”.
Consider “AHADFEHLPVALMKFGSDGSLRVANRAARDLLGLGHDAQPDFSDLFEGLGRAVRDWLADVAAERMPGGAEVLRLRRSEEEVFLQIALRRIVEHGRPLVLAVLNDAT”, for which the protein production result is reported as “failed”.
Take “AHHHHHHGSKMIKVKVIGRNIEKEIEWREGMKVRDILRAVGFNTESAIAKVNGKVVLEDDEVKDGDFVEVIPVVSGG”: the protein production entry is reported as “not failed”.
In the case of “AHKLFIGGLPNYLNDDQVKELLTSFGPLKAFNLVKDSATGLSKGYAFCEYVDINVTDQAIAGLNGMQLGDKKLLVQRASVGAKNA” it was “not failed”.
With “AIACHTQVGGSMQVPEPRRPFTCSSENNVTNSFFEEAYSASFRSKLYNMVEEIEQERAKYCNSANLSYMDAFGVEKESIEEDYNKEEDRDSLCSVDIADNSETSNRSSEDLLCDNCSKSLMFLNNVFKWNDLLFCNLDCYTSAILKNQKGADVKHRVACSLSPTWHKDCVHSVQD”, the protein production result is reported as “not failed”.
In the case of “AIAELTGQRLREGDGPDGPADDGAGAQADLEHSLLVAAEKKDEGPYRMEHFRWGSPPKDKRYGGFMTSEKSQTPLVTLFKNAIIKNAYKKGE” it was “failed”; in that of “AIAMFTLPLLFPIITLPEPTGKYTVGTKAFHLIDTNRKETTVPNNHGNRELMIQVYYPAEKGSGKPSAYFENIDALAEQLAVTKGAPYIVTTHLGLTKTHSYQDAKPLQVKEKFPLLLFGHGMELYGQQNTFQLEELASQGYVVIALNFTGYAATTIFPNGKRIDSVPIEFTPNALNNMVRNWEQDTTFILNEVIKGNFDKNFTAIANLIDDDKIGMFGHSYGGATAAQMLVKDNRIKAAIDMDGGLYGDPMPKDGPQKPFMLMNAEATIQYMKEAENQKTDGIQDELFEISYLRNKTIEKPGAYTVVLPKTNHNSFTDLAAFSPIINEPGEDVSANYTLINKLVTSFFDQTLKG”, “failed”.
To “AIAPLGEEKNGKCDGSIYVNNPHLDSMTDDILYHFNLGTSTHDLPKMFGDVKFVCVGGSPWRMKSFTEYIAKELGLVDPNAEYPNICAGTDRYAMYKVGPVLSVSHGMGIPSISIMLHELIKLLYHARCTDVTVVRIGTSGGIGLKPGTVVVTKQSVDSLFQPHLEQTILGKPVVRSTELDKELAEELLQCGKELGEFEIIIGNTMCTLDFYEGSNVFEDKCTRIAAYSFKIHVL” belongs “failed”.
